Measurements taken from paper PMC9427763, “Structure and dynamics of Toll immunoreceptor activation in the mosquito Aedes aegypti” (Nature Communications, 2022).
Several values for one entry are separate records, joined by “and”; a condition that tells them apart may be missing. Identical values can stand only once. Values belong to the binder of their own block, whether it stands above or below them.

Key:
[1] = target: T1, Drosophila melanogaster Toll (Toll1) ectodomain (Drosophila melanogaster, UniProt P08953 28-807); test: SPR; Biacore T200, CM5 chip; Spz1A, Spz1C and DmSpz proproteins and cys-knot ligands immobilised by amine coupling at pH 4.5; Toll ectodomains injected at 0.1-7.5 μM; 100 mM NaCl, 20 mM HEPES pH 7; 30 μl/min; two-state reaction model; conditions: both partners purified
T1 construct: Toll receptor 1, Drosophila melanogaster, purified ectodomain; also called DmToll1; DmToll
T1 sequence (looked up): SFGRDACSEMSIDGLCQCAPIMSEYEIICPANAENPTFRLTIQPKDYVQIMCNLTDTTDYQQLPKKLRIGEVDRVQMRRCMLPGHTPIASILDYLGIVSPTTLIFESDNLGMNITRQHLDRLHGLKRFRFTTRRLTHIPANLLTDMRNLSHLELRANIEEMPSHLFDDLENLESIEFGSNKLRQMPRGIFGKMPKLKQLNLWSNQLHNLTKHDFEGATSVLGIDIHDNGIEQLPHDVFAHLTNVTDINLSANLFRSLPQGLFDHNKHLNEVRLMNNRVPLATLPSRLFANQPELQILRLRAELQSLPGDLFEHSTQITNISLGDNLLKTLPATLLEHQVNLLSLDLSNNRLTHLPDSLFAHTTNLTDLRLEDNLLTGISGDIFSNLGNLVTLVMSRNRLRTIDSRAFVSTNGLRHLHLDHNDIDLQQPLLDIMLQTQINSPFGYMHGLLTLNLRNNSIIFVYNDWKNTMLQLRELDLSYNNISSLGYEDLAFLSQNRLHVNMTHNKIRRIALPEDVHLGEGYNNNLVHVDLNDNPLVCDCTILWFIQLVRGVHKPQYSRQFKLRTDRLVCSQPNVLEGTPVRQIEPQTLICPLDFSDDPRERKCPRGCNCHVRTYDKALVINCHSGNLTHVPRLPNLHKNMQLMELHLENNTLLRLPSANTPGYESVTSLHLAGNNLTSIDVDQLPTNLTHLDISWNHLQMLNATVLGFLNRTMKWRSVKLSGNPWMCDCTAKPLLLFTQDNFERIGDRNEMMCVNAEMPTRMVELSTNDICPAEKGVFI

[2] = target: Aedes aegypti Spaetzle1C cystine-knot domain (residues 219-320), disulphide-linked dimer (Aedes aegypti); test: AUC; sedimentation velocity, Toll5A with Spz1C at equimolar concentration or in excess; 50,000 rpm, 20 °C
[3] = target: T2, Aedes aegypti Spaetzle1C cystine-knot domain (residues 219-320), disulphide-linked dimer (Aedes aegypti, intermolecular disulphide bonds between Cys-94 and between Cys-59 of the two chains); test: SPR; heterogeneous ligand fit, second site
T2 chain: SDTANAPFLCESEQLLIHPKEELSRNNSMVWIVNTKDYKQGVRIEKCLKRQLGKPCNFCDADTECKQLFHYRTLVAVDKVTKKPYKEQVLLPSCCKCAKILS

[4] = target: Aedes aegypti Spaetzle1C cystine-knot domain (residues 219-320), disulphide-linked dimer (Aedes aegypti); test: mass photometry; 25 nM Toll5A with 25 nM Spz1C; PBS pH 7.4; Refeyn OneMP
[5] = target: Aedes aegypti Toll5A ectodomain (residues 1-789) (Aedes aegypti); test: AUC; sedimentation velocity, Toll5A ectodomain alone at ≥ 30 μM; 50,000 rpm, 20 °C; dimer to monomers
[6] = target: Aedes aegypti Spaetzle1C cystine-knot domain (residues 219-320), disulphide-linked dimer (Aedes aegypti); test: SPR; Biacore T200, CM5 chip; Spz1A, Spz1C and DmSpz proproteins and cys-knot ligands immobilised by amine coupling at pH 4.5; Toll ectodomains injected at 0.1-7.5 μM; 100 mM NaCl, 20 mM HEPES pH 7; 30 μl/min; two-state reaction model
[7] = target: Aedes aegypti Toll5A ectodomain (residues 1-789) (Aedes aegypti); test: SEC-MALS; 50 μM Toll5A alone or saturated with Spz1C loaded on Superose 6; 50 mM Tris-HCl pH 7.5, 50 mM NaCl
[8] = target: Aedes aegypti Spaetzle1C cystine-knot domain (residues 219-320), disulphide-linked dimer (Aedes aegypti); test: as above
[9] = target: T2, Aedes aegypti Spaetzle1C cystine-knot …; test: SPR; heterogeneous ligand fit, site 1
[10] = target: Aedes aegypti Spaetzle1C cystine-knot domain (residues 219-320), disulphide-linked dimer (Aedes aegypti); test: mass photometry; 50 nM Toll5A with 50 nM Spz1C; PBS pH 7.4; Refeyn OneMP

Kd [1]: 30 to 80 nM
B1: Drosophila melanogaster Spaetzle (Spz1) (ligand)
chain: VGGSDERFLCRSIRKLVYPKKGLRADDTWQLIVNNDEYKQAIQIEECEGADQPCDFAANFPQSYNPICKQHYTQQTLASIKSDGELDVVQNSFKIPSCCKCALKTG
modifications: disulfide-linked dimer of the processed cys-knot form (C-106; limits from the UniProt chain feature, not given); the proprotein (26-326) was also immobilised

stoichiometry N (Toll5A per Spz1C dimer) [2]: 1 and 2 | koff [3]: 0.00532 s⁻¹ | stoichiometry N (Toll5A per Spz1C dimer) [4]: 2 | stoichiometry N [5]: 2 | Kd [6]: 2000 nM | stoichiometry N [7]: 2 | stoichiometry N (Toll5A per Spz1C dimer) [8]: 2 | koff [9]: 0.0324 s⁻¹ | stoichiometry N (Toll5A per Spz1C dimer (1:1 complex)) [10]: 1 | stoichiometry N (Toll5A per Spz1C dimer (2:1 complex)) [10]: 2 | stoichiometry N (Toll5A per Spz1C dimer (2:2 complex)) [10]: 1
B2: Aedes aegypti Toll5A ectodomain (residues 1-789) (receptor)
chain: TSTKRFTCPEESEASNCSCEEFPSKTHFYCPDFNPTLYVDVEDRMRVDFKCYDEPHDFKSLPNLAIGSVKLLTVVDCVLDDDRPILESFKFLEVADVRSFVYNNHENGIRYNAKYFEGMEQLENLTLARGVVSIDRDTFSGFLNLKRLTIEHNKLNLQPGTFEALSNLTYLGLVYNGLNEIQPGLFDGLESLEALSLSYNDIKSLSAGSFNGLSSLRMLNLRVNKIESFDANTFASLKELSRLEITLNPFVSLPRGLFSENKKLKTLILTNNRKLVTLPEELLANLKELTVVNLSHNGVGNLPESLLSGSSGIIELNLGYNRLNSLPEELLSDQPQLQVLNLDHNQLESIPDYFLERNVELQTLYLSHNRLRSLSEKAFTKLKNLKELHLENNQLQTIPQFLFSGTPKLEEIYMQNNQLALHANSFINEELSIADNDNTPFQVLQKLRILHLRNNSISTIFQDWYINNLEMQSLDLSFNKLPGLSYTQLQFQSNITLNLSNNEISQVLLIDDLDLQPYQRINVDLNHNPLNCNCNALKFIQLIQSKAEHGLQFNVDQLRCSEPPNLLDATMDQLQTKDLLCDFESADDCPKDCQCAMRLLDHTVIVNCSGRGLTEFPDLPIPSQLHEDFNALEVHVENNRLTKLPNLTKHNEITQLYARNNSIQNLLPHNIPSKLRIIDLSQNLLKMIDDSTLAQINRSSHLETIRLSQNQWLCDCPASSFLIFVQQNSRLISDMSAIRCHPSGKSLDSITVNELCFEDYTTENLYFQ
modifications: Asn-linked glycans visible at positions 151, 194, 481, 521, 634 and 687
